# Assay results published in publication PMC9482650, “Quantitative fragmentomics allow affinity mapping of interactomes” (Nature Communications, 2022).
# T1: PCLO, Q9Y6V0
# T1 sequence (Q9Y6V0 4491-4600, limits assumed, looked up): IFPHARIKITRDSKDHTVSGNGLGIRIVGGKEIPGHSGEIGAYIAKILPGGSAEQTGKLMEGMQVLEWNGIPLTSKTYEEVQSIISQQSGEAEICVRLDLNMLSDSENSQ
# T2: NHERF3_3, Q5T2W1
# T2 sequence (Q5T2W1 238-333, limits assumed, looked up): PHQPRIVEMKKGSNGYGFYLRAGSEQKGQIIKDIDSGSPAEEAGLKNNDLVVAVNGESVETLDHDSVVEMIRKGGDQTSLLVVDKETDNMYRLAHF
# T3: LNX2_2, Q8N448
# T3 sequence (Q8N448 334-432, limits assumed, looked up): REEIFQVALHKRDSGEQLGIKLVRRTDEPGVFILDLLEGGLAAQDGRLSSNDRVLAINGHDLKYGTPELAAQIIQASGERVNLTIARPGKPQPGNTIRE
# T4: SHANK1, Q9Y566
# T4 sequence (Q9Y566 658-767, limits assumed, looked up): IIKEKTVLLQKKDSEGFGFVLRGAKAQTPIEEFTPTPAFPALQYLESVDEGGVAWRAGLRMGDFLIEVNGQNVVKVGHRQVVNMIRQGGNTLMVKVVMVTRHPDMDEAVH
# T5: SIPA1L2, Q9P2F8
# T5 sequence (Q9P2F8 945-1036, limits assumed, looked up): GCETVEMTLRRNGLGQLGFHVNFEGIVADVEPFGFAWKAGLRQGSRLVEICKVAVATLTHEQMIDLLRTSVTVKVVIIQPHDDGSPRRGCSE
# T6: ARHGEF11, O15085
# T6 sequence (O15085 42-136, limits assumed, looked up): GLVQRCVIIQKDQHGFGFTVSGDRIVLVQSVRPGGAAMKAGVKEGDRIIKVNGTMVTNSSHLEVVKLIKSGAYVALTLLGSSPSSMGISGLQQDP
# T7: RHPN1, Q8TCX5
# T7 sequence (Q8TCX5 508-602, limits assumed, looked up): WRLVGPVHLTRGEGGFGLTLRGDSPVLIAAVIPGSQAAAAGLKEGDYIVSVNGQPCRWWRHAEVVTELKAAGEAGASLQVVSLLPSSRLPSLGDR
# T8: DLG3_2, Q92796
# T8 sequence (Q92796 221-321, limits assumed, looked up): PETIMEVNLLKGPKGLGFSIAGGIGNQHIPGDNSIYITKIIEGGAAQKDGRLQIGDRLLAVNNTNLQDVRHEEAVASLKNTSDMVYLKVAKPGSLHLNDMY
# T9: PDZRN3_1, Q9UPQ7
# T9 sequence (Q9UPQ7 244-349, limits assumed, looked up): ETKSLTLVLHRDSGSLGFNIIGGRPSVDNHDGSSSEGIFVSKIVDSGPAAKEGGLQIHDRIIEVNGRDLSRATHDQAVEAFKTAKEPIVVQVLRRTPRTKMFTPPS
# T10: MPP6, Q9NZW5
# T10 sequence (Q9NZW5 125-219, limits assumed, looked up): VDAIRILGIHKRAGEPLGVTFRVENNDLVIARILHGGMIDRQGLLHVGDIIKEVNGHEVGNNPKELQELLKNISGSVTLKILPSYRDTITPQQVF
# T11: ARHGAP21, Q5T5U3
# T11 sequence (Q5T5U3 45-169, limits assumed, looked up): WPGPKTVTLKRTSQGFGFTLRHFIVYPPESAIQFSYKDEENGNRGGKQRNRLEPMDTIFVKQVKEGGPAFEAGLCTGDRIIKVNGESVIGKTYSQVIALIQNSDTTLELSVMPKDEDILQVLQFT
# Legend:
# Experiment in all cases: holdup assay
# Design in all cases: key: below the threshold = too weak to quantify, mostly under pKd 3.1 to 4
# [1] = molecular target: SNX27, Q96L92
# [2] = molecular target: MAST2, Q6P0Q8
# [3] = molecular target: Inadl_2, Q8NI35
# [4] = molecular target: T1, PCLO, Q9Y6V0
# [5] = molecular target: MAST1, Q9Y2H9
# [6] = molecular target: PTPN3, P26045
# [7] = molecular target: PICK1, Q9NRD5
# [8] = molecular target: T2, NHERF3_3, Q5T2W1
# [9] = molecular target: GRIP2_5, Q9C0E4
# [10] = molecular target: IL16_4, Q14005
# [11] = molecular target: GORASP1, Q9BQQ3
# [12] = molecular target: T3, LNX2_2, Q8N448
# [13] = molecular target: T4, SHANK1, Q9Y566
# [14] = molecular target: T5, SIPA1L2, Q9P2F8
# [15] = molecular target: IL16_1, Q14005
# [16] = molecular target: T6, ARHGEF11, O15085
# [17] = molecular target: NHERF2_2, Q15599
# [18] = molecular target: T7, RHPN1, Q8TCX5
# [19] = molecular target: Inadl_8, Q8NI35
# [20] = molecular target: T8, DLG3_2, Q92796
# [21] = molecular target: NHERF4_4, Q86UT5
# [22] = molecular target: T9, PDZRN3_1, Q9UPQ7
# [23] = molecular target: LDB3, O75112
# [24] = molecular target: DLG5_1, Q8TDM6
# [25] = molecular target: T10, MPP6, Q9NZW5
# [26] = molecular target: TJP1_2, Q07157
# [27] = molecular target: T11, ARHGAP21, Q5T5U3
# [28] = plain residues with an end cap or a label only (N-terminal biotin on a linker: ado-ado)
# [29] = plain residues with an end cap or a label only (N-terminal biotin on a linker: ahx)
# [30] = plain residues with an end cap or a label only (N-terminal biotin on a linker: ttds)
# NHERF2_2, Q15599, sequence (Q15599 142-238): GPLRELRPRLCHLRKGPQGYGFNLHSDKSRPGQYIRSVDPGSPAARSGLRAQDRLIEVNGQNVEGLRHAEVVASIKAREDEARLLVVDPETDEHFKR
# MAST2, Q6P0Q8, sequence (Q6P0Q8 1099-1202): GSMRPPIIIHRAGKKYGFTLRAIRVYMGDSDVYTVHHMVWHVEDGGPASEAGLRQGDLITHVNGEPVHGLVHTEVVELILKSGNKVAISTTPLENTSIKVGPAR
# DLG5_1, Q8TDM6, sequence (Q8TDM6 617-713): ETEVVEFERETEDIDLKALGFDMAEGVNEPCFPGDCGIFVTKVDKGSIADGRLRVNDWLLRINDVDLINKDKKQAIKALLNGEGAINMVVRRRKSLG
# Inadl_2, Q8NI35, sequence (Q8NI35 238-335): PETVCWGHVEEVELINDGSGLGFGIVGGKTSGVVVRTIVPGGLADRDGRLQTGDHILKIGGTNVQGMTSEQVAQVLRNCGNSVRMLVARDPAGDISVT
# Inadl_8, Q8NI35, sequence (Q8NI35 1425-1530): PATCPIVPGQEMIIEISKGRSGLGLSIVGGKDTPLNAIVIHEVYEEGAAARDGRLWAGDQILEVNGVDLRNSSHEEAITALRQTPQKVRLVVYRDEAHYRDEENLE
# GRIP2_5, Q9C0E4, sequence (Q9C0E4 544-642): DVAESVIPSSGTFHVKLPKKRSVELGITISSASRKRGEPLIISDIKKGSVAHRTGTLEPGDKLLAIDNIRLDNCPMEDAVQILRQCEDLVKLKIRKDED
# IL16_4, Q14005, sequence (Q14005 1229-1329): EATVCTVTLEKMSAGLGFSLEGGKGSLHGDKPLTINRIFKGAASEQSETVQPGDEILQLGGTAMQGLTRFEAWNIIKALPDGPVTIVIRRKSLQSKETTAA
# LDB3, O75112, sequence (O75112 1-94): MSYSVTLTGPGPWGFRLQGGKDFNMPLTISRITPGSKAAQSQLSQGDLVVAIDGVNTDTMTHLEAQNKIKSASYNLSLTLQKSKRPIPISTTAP
# PTPN3, P26045, sequence (P26045 505-587): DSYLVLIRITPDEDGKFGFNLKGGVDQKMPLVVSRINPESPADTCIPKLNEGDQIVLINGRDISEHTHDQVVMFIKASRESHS
# GORASP1, Q9BQQ3, sequence (Q9BQQ3 1-208): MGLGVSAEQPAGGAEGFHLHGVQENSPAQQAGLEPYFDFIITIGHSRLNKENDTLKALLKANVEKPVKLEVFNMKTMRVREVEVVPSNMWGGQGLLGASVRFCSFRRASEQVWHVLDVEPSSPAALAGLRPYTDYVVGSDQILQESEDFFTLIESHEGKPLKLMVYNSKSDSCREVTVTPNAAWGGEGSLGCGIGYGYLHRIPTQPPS
# IL16_1, Q14005, sequence (Q14005 210-306): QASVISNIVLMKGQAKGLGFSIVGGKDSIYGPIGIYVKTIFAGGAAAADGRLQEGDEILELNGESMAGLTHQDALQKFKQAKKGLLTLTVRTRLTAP
# TJP1_2, Q07157, sequence (Q07157 181-274): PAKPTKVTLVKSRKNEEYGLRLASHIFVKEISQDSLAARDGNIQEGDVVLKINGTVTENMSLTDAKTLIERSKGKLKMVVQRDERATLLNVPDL
# NHERF4_4, Q86UT5, sequence (Q86UT5 464-550): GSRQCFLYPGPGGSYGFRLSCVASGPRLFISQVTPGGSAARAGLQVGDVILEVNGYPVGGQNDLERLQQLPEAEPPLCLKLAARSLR
# PICK1, Q9NRD5, sequence (Q9NRD5 17-115): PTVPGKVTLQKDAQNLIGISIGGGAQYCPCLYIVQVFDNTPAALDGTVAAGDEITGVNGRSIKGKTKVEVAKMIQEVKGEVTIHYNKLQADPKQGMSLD
# MAST1, Q9Y2H9, sequence (Q9Y2H9 962-1065): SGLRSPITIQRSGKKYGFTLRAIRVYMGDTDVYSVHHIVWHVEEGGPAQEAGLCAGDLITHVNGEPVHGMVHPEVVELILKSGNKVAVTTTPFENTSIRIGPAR
binder,measurement,setting,value
"EEPEERHTEL [CES2, O00748]",pKd,[1]; [28],4.74
same,pKd,[2]; [28],5.44
same,pKd,[3]; [28],below the threshold
same,pKd,[4]; [28],below the threshold
same,pKd,[5]; [28],3.53
same,pKd,[6]; [28],4.94
same,pKd,[7]; [28],below the threshold
same,pKd,[8]; [28],below the threshold
same,pKd,[9]; [28],below the threshold
same,pKd,[10]; [28],below the threshold
same,pKd,[11]; [28],below the threshold
same,pKd,[12]; [28],below the threshold
same,pKd,[13]; [28],4.55
same,pKd,[14]; [28],below the threshold
same,pKd,[15]; [28],below the threshold
same,pKd,[16]; [28],4.64
same,pKd,[17]; [28],4.63
same,pKd,[18]; [28],4.19
same,pKd,[19]; [28],below the threshold
same,pKd,[20]; [28],4.38
same,pKd,[21]; [28],below the threshold
same,pKd,[22]; [28],4.15
same,pKd,[23]; [28],below the threshold
same,pKd,[24]; [28],below the threshold
same,pKd,[25]; [28],below the threshold
same,pKd,[26]; [28],below the threshold
same,pKd,[27]; [28],below the threshold
"QGRWDHETIV [TMEM215, Q68D42]",pKd,[1]; [29],5.38
same,pKd,[2]; [29],4.86
same,pKd,[3]; [29],4.22
same,pKd,[4]; [29],below the threshold
same,pKd,[5]; [29],4.3
same,pKd,[6]; [29],4.19
same,pKd,[7]; [29],4.06
same,pKd,[8]; [29],below the threshold
same,pKd,[9]; [29],below the threshold
same,pKd,[10]; [29],below the threshold
same,pKd,[11]; [29],4.15
same,pKd,[12]; [29],5.07
same,pKd,[13]; [29],3.57
same,pKd,[14]; [29],below the threshold
same,pKd,[15]; [29],4.4
same,pKd,[16]; [29],4.04
same,pKd,[17]; [29],below the threshold
same,pKd,[18]; [29],4.59
same,pKd,[19]; [29],3.65
same,pKd,[20]; [29],4.8
same,pKd,[21]; [29],below the threshold
same,pKd,[22]; [29],3.73
same,pKd,[23]; [29],3.47
same,pKd,[24]; [29],below the threshold
same,pKd,[25]; [29],below the threshold
same,pKd,[26]; [29],3.5
same,pKd,[27]; [29],below the threshold
"DPRNTQTSQI [ABRAXAS2, Q15018]",pKd,[1]; [30],4.04
same,pKd,[2]; [30],4.55
same,pKd,[3]; [30],below the threshold
same,pKd,[4]; [30],3.66
same,pKd,[5]; [30],4.32
same,pKd,[6]; [30],3.77
same,pKd,[7]; [30],below the threshold
same,pKd,[8]; [30],below the threshold
same,pKd,[9]; [30],below the threshold
same,pKd,[10]; [30],3.66
same,pKd,[11]; [30],3.56
same,pKd,[12]; [30],below the threshold
same,pKd,[13]; [30],below the threshold
same,pKd,[14]; [30],below the threshold
same,pKd,[15]; [30],3.59
same,pKd,[16]; [30],4.03
same,pKd,[17]; [30],3.6
same,pKd,[18]; [30],4.43
same,pKd,[19]; [30],3.54
same,pKd,[20]; [30],3.81
same,pKd,[21]; [30],below the threshold
same,pKd,[22]; [30],3.54
same,pKd,[23]; [30],below the threshold
same,pKd,[24]; [30],below the threshold
same,pKd,[25]; [30],below the threshold
same,pKd,[26]; [30],below the threshold
same,pKd,[27]; [30],below the threshold
"RTRQRNETQV [HPV51-E6, P26554]",pKd,[1]; [30],4.85
same,pKd,[2]; [30],5.27
same,pKd,[3]; [30],below the threshold
same,pKd,[4]; [30],below the threshold
same,pKd,[5]; [30],4.23
same,pKd,[6]; [30],4.38
same,pKd,[7]; [30],below the threshold
same,pKd,[8]; [30],below the threshold
same,pKd,[9]; [30],below the threshold
same,pKd,[10]; [30],below the threshold
same,pKd,[11]; [30],below the threshold
same,pKd,[12]; [30],3.61
same,pKd,[13]; [30],below the threshold
same,pKd,[14]; [30],below the threshold
same,pKd,[15]; [30],below the threshold
same,pKd,[16]; [30],3.69
same,pKd,[17]; [30],below the threshold
same,pKd,[18]; [30],3.7
same,pKd,[19]; [30],below the threshold
same,pKd,[20]; [30],5.1
same,pKd,[21]; [30],below the threshold
same,pKd,[22]; [30],4.06
same,pKd,[23]; [30],below the threshold
same,pKd,[24]; [30],below the threshold
same,pKd,[25]; [30],below the threshold
same,pKd,[26]; [30],below the threshold
same,pKd,[27]; [30],below the threshold
